In the experiment the target is beta Klotho and FGFR1c (Fibroblast Growth Factor Receptor isoform 1c) expressed on the cell surface of a …. Description: cell-based or functional assay.

B1: wild-type (WT) bFGF-21 (ligand)
chain: HPIPDSSPLLQFGGQVRQRYLYTDDAQETEAHLEIRADGTVVGAARQSPESLLELKALKPGVIQILGVKTSRFLCQGPDGKLYGSLHFDPKACSFRELLLEDGYNVYQSETLGLPLRLPPQRSSNRDPAPRGPARFLPLPGLPAAPPDPPGILAPEPPDVGSSDPLSMVGPSYGRSPSYTS
For B1, the “EC50 (ng/mL), STEADY-GLO Elk1 luciferase reporter assay” value is 38 ng/mL and the “Fold loss potency relative to WT bFGF21, Elk1 luciferase reporter assay” value amounted to 1 fold.

The values above are taken from US20190201491A1 (ELANCO US, published 2019).
